Where a chain is given by its changes, count along the chain named. Names and notes keep the numbering of the source.
T1: full-length human CD22 expressed on the cell surface (human, UniProt P20273 20-847)
T1 construct: One molecule is used both for CHO transfectants with the full-length CD22 cDNA and for endogenous CD22 on Raji/Daudi cells; also called CHO-CD22; CHO cells transfected with full-length CD22
T1 sequence (looked up): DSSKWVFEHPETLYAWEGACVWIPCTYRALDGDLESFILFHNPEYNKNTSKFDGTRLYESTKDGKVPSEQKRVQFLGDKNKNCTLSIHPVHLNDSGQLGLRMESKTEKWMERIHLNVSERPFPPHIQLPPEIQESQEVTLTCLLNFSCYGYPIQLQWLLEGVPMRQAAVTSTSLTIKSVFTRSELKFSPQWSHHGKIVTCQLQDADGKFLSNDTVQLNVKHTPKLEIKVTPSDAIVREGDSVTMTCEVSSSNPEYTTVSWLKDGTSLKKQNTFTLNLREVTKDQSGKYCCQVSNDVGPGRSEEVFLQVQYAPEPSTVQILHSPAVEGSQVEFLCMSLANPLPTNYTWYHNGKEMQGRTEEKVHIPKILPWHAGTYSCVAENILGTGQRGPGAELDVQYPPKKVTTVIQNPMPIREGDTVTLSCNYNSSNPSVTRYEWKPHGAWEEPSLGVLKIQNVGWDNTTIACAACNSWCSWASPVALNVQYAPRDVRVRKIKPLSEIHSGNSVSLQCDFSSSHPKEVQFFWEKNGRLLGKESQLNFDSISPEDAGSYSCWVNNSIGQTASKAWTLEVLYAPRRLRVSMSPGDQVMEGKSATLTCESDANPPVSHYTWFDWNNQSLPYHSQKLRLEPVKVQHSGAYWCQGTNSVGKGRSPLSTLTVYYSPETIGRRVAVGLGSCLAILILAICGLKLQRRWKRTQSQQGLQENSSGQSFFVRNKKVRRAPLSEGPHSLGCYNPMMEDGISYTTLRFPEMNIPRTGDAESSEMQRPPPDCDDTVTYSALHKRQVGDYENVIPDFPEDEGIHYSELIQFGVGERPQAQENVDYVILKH

T2: recombinant human CD22 extracellular domain with C-terminal hexahistidine tag (human, UniProt P20273 20-687)
T2 construct: The whole entry is named here; also called CD22 ECD; CD22β extracellular domain
T2 sequence: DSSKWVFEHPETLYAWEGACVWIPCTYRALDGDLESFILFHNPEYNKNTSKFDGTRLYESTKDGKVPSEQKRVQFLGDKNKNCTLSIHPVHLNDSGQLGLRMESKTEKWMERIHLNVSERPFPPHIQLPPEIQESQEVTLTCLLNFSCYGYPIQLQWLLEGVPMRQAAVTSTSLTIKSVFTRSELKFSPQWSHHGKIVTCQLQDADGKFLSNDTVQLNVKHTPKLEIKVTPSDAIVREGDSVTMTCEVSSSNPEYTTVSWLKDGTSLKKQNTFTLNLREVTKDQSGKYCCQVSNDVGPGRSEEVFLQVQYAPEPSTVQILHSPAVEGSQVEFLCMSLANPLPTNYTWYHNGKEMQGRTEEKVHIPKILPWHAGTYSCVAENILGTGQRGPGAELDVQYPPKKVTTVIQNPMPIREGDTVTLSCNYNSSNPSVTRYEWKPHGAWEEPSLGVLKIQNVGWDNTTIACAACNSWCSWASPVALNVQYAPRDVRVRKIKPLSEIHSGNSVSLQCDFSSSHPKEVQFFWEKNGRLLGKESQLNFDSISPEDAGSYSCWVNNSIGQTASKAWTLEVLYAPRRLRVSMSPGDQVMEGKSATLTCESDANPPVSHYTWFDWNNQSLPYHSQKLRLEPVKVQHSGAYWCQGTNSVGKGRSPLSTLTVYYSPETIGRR

B1: recombinant human anti-CD22 monoclonal antibody CD22.1 (antibody, human IgG1, V domains shown)
VH: QVQLQQWGAGLLKPSETLSLTCAVYGRSFSSYYWSWIRQPPGKGLEWIGDINHSGSTNYNPSLKSRVTISVDTSKNQFSLKLSSVTAADTAVYYCAGTFYDILTGYYPLGYWGPGTLVTVSS
VL: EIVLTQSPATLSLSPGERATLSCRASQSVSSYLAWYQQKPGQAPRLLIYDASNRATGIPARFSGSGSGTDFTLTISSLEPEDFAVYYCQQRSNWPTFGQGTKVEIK
notes: also called 19A3 expressed in CHO cells (clone 8G9)
B2: anti-CD22 human monoclonal antibody 19A3 (antibody, IgG1, V domains shown)
VH: B1 VH
VL: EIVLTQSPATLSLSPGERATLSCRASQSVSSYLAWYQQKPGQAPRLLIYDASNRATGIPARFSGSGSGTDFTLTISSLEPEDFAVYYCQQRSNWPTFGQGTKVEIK
notes: Hybridoma-derived; also called parental antibody 19A3
B3: recombinant human anti-CD22 monoclonal antibody CD22.2 (antibody, human IgG1, V domains shown)
VH: B1 VH with N52Q
VL: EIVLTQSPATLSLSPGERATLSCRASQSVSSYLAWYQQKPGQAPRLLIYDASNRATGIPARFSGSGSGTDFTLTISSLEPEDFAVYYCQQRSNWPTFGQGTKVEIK
notes: Variant of 19A3 with N57Q, which removes the N-glycosylation site in VH CDR2; also called 19A3 VH N57Q variant (clone 17E11)
B4: anti-CD22 human monoclonal antibody 12C5 (antibody, IgG1, V domains shown)
VH: QVQLVQSGSELKKPGASVKVSCKASGYTFTSYAMNWVRQAPGQGLEWMGWINTNTGNPTYAQGFTGRFVFSLDTSVSTAYLQISSLKAEDTAVYYCARLFYYYFGMDVWGQGTTVTVSS
VL: QSALTQPASVSGSPGQSITISCTGTSSDVGSYNLVSWYQLHPGKAPKLMIYEVSKRPSGVSNRFSGSRSGNTASLTISGLQAEDEADYYCCSYANSSTLVFGGGTKLTVL
notes: Hybridoma-derived

How the values were obtained:
[1] = molecular target: T1, full-length human CD22 expressed on the …; assay: flow cytometry (FACS Array) on CHO cells transfected with full-length CD22, goat anti-human IgG-PE
[2] = molecular target: T2, recombinant human CD22 extracellular …; assay: SPR (BIAcore 3000); CD22 ECD-His captured by anti-His mAb on CM5 chip, antibody injected at 20 µg/mL
Description: For determination of antibody affinity (KD), experiments were performed in which the CD22 antigen was captured on a BIAcore chip using an antibody to the His tag present on the antigen. Anti-His monoclonal antibody ab15149 (Abcam, Stock conc.0.5 mg/mL) was coated on a CM5 chip at high density (3500RUs), as recommended by the manufacturer. CD22 ECD (6.6 μg/mL) was captured on this surface for 60 sec at a flow-rate of 6 μL/min. A single concentration (20 μg/mL) of anti-CD22 purified mAbs was injected over the captured antigen with an association time of 5 minutes and a dissociation time of 8 minutes, at a flow rate of […]. The chip surface was regenerated after each cycle with 10 μL of 25 mM NaOH. Isotype controls were run on the chip and the data used to subtract non-specific binding. All experiments were carried out on a BIAcore 3000 surface plasmon resonance instrument, using BIAcore Control software v 3.2. Data analysis was carried out using BiaEvaluation v. 3.2 software.
Fourteen of the selected anti-CD22 antibodies were tested in the affinity experiment.

| Binder | EC50 (read off the curve) [1] [µg/mL] | Kd [2] [pM] |
| --- | --- | --- |
| B1 | ~0.3 |  |
| B2 |  | 150 |
| B3 | ~0.3 |  |
| B4 |  | 230 |

Source: US20100143368A1 (Bristol-Myers Squibb, published 2010)
